Results on 24 molecules are retold here after patent US20260258115A1 (MAPP BIOPHARMACEUTICAL, published 2026).

The assay has as its target T1, RSV postfusion F (postF), subtype A (respiratory syncytial virus subtype A, UniProt P03420 26-513).
T1 construct: also called Postfusion subtype A; F deltaFP
In words: BLI.

Where a chain is given by its changes, count along the chain named.

B1: ADI-19463 (antibody, V domains shown)
VH: QVQLQESGPGLVKPSQTLSLTCTVSGGSISSGDYYWSWIRQPPGKGLEWIGYIYYSGSTYYNPSLKSRVTISVDTSKNQFSLKLSSVTAADTAVYYCARDRLGIFDYWGQGTLVTVSS
VL: not shown
notes: full-length IgG
Consider B1, for which the binding result is given as “no binding”.

B2: ADI-19496 (antibody, V domains shown)
VH: EVQLVESGGGVVQPGGSLRLSCAASGFTFSSYGMHWVRQAPGKGLEWVAFIRYDGSNKYYADSVKGRFTISRDNSKSTLYLQMNSLRAEDTAVYYCAKDATFGYSSSWYNFDYWGQGTLVTVSS
VL: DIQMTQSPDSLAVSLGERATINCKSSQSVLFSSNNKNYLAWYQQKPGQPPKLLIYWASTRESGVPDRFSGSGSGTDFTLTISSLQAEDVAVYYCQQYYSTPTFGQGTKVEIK
notes: full-length IgG; also called Ab 198
In the case of B2, the binding result is given as “no binding”.

B3: ADI-19469 (antibody, V domains shown)
VH: QVQLQESGPGLVKPSETLSLTCAVSGYSISSGYYWGWIRQPPGKGLEWIGSIYHSGSTYYNPSLKSRVTISVDTSKNQFSLKLSSVTAADTAVYYCARWTVMYYFDYWGQGTLVTVSS
VL: EIVMTQSPATLSLSPGERATLSCRASQSVSSYLAWYQQKPGQAPRLLIYDASNRATGIPARFSGSGSGTDFTLTISSLEPEDFAVYYCQQRSNWPTFGGGTKLEIK
notes: full-length IgG
Take B3: the binding result is on record as “no binding”.

B4: ADI-24824 (antibody, V domains shown)
VH: QVQLQESGPGLVKPSETLSLTCTVSGGSISSYYWSWIRQPPGKGLEWIGYIYYSGSTNYNPSLKSRVTISVDTSKNQFSLKLSSVTAADTAVYYCAISLYGDYRTDAFDIWGQGTTVTVSS
VL: EIVLTQSPSSFSASTGDRVTITCRASQGISSYLAWYQQKPGKAPKLLIYAASTLQSGVPSRFSGSGSGTDFTLTISCLQSEDFATYYCQQYYSYPLFGGGTKVEIK
In the case of B4, the binding result is reported as “no binding”.

B5: ADI-24813 (antibody, V domains shown)
VH: EVQLLESGGGLVQPGRSLRLSCAASGFTFDDYAMHWVRQAPGKGLEWVSGISWNSGSIGYADSVKGRFTISRDNAKNSLYLQMNSLRAEDTALYYCAKDGDSSSWRDSNFDYWGQGTLVTVSS
VL: QSVLTQPPSVSGAPGQRVTISCTGSSSNIGAGYDVHWYQQLPGTAPKLLIYGNSNRPSGVPDRFSGSKSGTSASLAITGLQAEDEADYYCQSYDSSLSGVVFGGGTKLTVL
notes: full-length IgG
On to B5, for which the binding result is “no binding”.

B6: ADI-24822 (antibody, V domains shown)
VH: QVQLVESGGGLVKPGGSLRLSCAASGFTFSSYSMNWVRQAPGKGLEWVSSISSSSSYIYYADSVKGRFTISRDNAKNSLYLQMNSLRAEDTAVYYCARDSGLGSRGDAFDIWGQGTMVTVSS
VL: B5 VL with V100Y, G104T, L108V
notes: full-length IgG
Regarding B6, the binding result is “no binding”.

B7: ADI-19473 (antibody, V domains shown)
VH: EVQLVESGAEVKKPGESLKISCKGSGYSFTSYWIGWVRQMPGKGLEWMGIIYPGDSDTRYSPSFQGQVTISADKSISTAYLQWSSLKASDTAMYYCARLIAAAGIDYWGQGTLVTVSS
VL: NFMLTQPHSVSESPGKTVTISCTRSSGSIASNYVQWYQQRPGSSPTTVIYEDNQRPSGVPDRFSGSIDSSSNSASLTISGLKTEDEADYYCQSYDSSNIWVFGGGTKVTVL
notes: full-length IgG
For the molecule B7, the binding result is “no binding”.

B8: ADI-19492 (antibody, V domains shown)
VH: QVQLVQSGAEVKKPGESLKISCKGSGYRFTSYWIGWVRQMPGKGLEWMGIIYPGDSDTRYSPSFQGQVTISADKSISTAYLQWSSLKASDTAMYYCARSGSHYAFDLWGQGTMVTVSS
VL: B7 VL with S28N, I49L, I99P, V108L
notes: full-length IgG
As for B8, the binding result was “no binding”.

B9: ADI-19499 (antibody, V domains shown)
VH: EVQLLESGPGLVKPSETLSLTCTVSGGSISSSSYYWGWIRQPPGKGLEWIGSIYYSGSTYYNPSLKSRVTISVDTSKNQFSLKLSSVTAADTAVYYCAVLLYSSSSFDYWGQGTLVTVSS
VL: B7 VL with I99Q, W100A, K107Q, V108L
notes: full-length IgG; also called Ab 201
Consider B9, for which the binding result was “no binding”.

B10: ADI-24837 (antibody, V domains shown)
VH: QVQLQESGPGLVKPSETLSLTCTVSGGSISSYYWSWIRQPPGKGLEWIGYIYYSGSTNYNPSLKSRVTISVDTSKNQFSLKLSSVTAADTAVYYCARAIYYYDSSGYYYVGDAFDIWGQGTTVTVSS
VL: QSVLTQPPSVSAAPGQKVTISCSGSSSNIGNNYVSWYQQLPGTAPKLLIYENNKRPSGIPDRFSGSKSGTSATLGITGLQTGDEADYYCGTWDSSLSAGVFGGGTKLTVL
Regarding B10, the binding result was “no binding”.

B11: ADI-19441 (antibody, V domains shown)
VH: QVQLVQSGAEVKKPGSSVKVSCKASGGTFSSYAISWVRQAPGQGLEWMGRIIPILGIANYAQKFQGRVTITADKSTSTAYMELSSLRSEDTAVYYCARGPLTGYSSSWFDPWGQGTLVTVSS
VL: EIVMTQSPSSLSASVGDRVTITCRASQSISSYLNWYQQKPGKAPKLLIYAASSLQSGVPSRFSGSGSGTDFTLTISSLQPEDFATYYCQQSYSTLPYTFGQGTKVEIK
notes: full-length IgG
With B11, the binding result is on record as “no binding”.

B12: ADI-24816 (antibody, V domains shown)
VH: QVQLVQSGAEVKKPGASVKVSCKASGYTFTSYDINWVRQATGQGLEWMGWMNPNSGNTGYAQKFQGRVTMTRNTSISTAYMELSSLRSEDTAVYYCARGIPGYYYYGMDVWGQGTTVTVSS
VL: not shown
notes: full-length IgG
With B12, the binding result is listed as “no binding”.

B13: ADI-25503 (antibody, V domains shown)
VH: EVQLLESGAEVKKPGSSVKVSCKASGGTFSSYAISWVRQAPGQGLEWMGGIIPIFGTANYAQKFQGRVTITADESTSTAYMELSSLRSEDTAVYYCARSRYSGSYYYYYGMDVWGQGTTVTVSS
VL: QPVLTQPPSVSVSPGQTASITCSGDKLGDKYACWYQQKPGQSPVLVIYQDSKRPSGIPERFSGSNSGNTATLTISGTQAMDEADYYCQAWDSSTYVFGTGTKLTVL
notes: full-length IgG
As to B13, the binding result is recorded as “no binding”.

B14: ADI-25514 (antibody, V domains shown)
VH: B13 VH with L5V, E6Q
VL: not shown
notes: full-length IgG
B14: the binding result is listed as “no binding”.

B15: ADI-19491 (antibody, V domains shown)
VH: QVQLVQSGPTLVKPTQTLTLTCTFSGFSLSTSGVGVGWIRQPPGKALEWLALIYWDDDKRYSPSLKSRLTITKDTSKNQVVLTMTNMDPVDTATYYCAHRRATTVTTGYFDYWGQGTLVTVSS
VL: QSVLTQPPSVSGAPGQRVTISCTGSSSNIGAGYDVHWYQQLPGTAPKLLIYGNSNRPSGVPDRFSGSKSGTSASLAITGLQAEDEADYYCQSYDSSLSGHYVFGTGTKVTVL
notes: full-length IgG
As to B15, the binding result was “no binding”.

B16: ADI-19468 (antibody, V domains shown)
VH: EVQLVESGPGLVKPSETLSLTCTVSGGSISSSSYYWGWIRQPPGKGLEWIGSIYYSGSTYYNPSLKSRVTISVDTSKNQFSLKLSSVTAADTAVYYCARRDGYNYGWFDPWGQGTLVTVSS
VL: NFMLTQPHSVSESPGKTVTISCTGSSGSIASNYVQWYQQRPGSAPTTVIYEDNQRPSGVPDRFSGSIDSSSNSASLTISGLKTEDEADYYCQSYDSSNVVFGGGTKVTVL
notes: full-length IgG
B16: the binding result is given as “no binding”.

B17: ADI-19471 (antibody, V domains shown)
VH: EVQLVESGGGLVQPGGSLRLSCSASGFTFSSYAMHWVRQAPGKGLEYVSAISSNGGSTYYADSVKGRFTISRDNSKNTLYLQMSSLRAEDTAVYYCVKADQGSSGWFPDYWGQGTLVTVSS
VL: B16 VL with G24R, A44S, V99W, V107L
notes: full-length IgG
B17: the binding result was “no binding”.

B18: ADI-19474 (antibody, V domains shown)
VH: QVQLVQSGAEVKKPGESLKISCKGSGYSFTSYWIGWVRQMPGKGLEWMGIIYPGDSDTRYSPSFQGQVTISADKSISTAYLQWSSLKASDTAMYYCARPYSGSYYAFDIWGQGTTVTVSS
VL: B16 VL with G24R, A44S, V99Q, V107L
notes: full-length IgG
Take B18: the binding result is listed as “no binding”.

B19: ADI-19444 (antibody, V domains shown)
VH: QVQLVQSGAEVKKPGASVKVSCKASGYTFTSYGISWVRQAPGQGLEWMGWISAYNGNTNYAQKLQGRVTMTTDTSTSTAYMELRSLRSDDTAVYYCARDEALVGATFDYWGQGTLVTVSS
VL: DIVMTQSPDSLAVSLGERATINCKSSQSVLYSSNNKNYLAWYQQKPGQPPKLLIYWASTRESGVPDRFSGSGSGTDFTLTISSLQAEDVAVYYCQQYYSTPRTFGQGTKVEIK
notes: full-length IgG
On to B19, for which the binding result is recorded as “no binding”.

B20: ADI-19435 (antibody, V domains shown)
VH: QVQLQESGPGLVKPSQTLSLTCTVSGGSISSGSYYWSWIRQPAGKGLEWIGRIYTSGSTNYNPSLKSRVTISVDTSKNQFSLKLSSVTAADTAVYYCAREGRGGAFDIWGQGTLVTVSS
VL: SYELTQPPSVSVSPGQTARITCSADALPKQYAYWYQQKPGQAPVLVIYKDSERPSGIPERFSGSSSGTTVTLTISGVQAEDEADYYCQSADSSGTYVVFGGGTQLTVL
notes: full-length IgG
For the molecule B20, the binding result is reported as “no binding”.

B21: ADI-19495 (antibody, V domains shown)
VH: QVQLQESGPGLVKPSETLSLTCTVSGGSISSYYWSWIRQPPGKGLEWIGYIYTSGSTNYNPSLKSRVTISVDTSKNQFSLKLSSVTAADTAVYYCARVGSYYDLQHWGQGTLVTVSS
VL: DIQLTQSPSSVSASVGDRVTITCRASQGISSWLAWYQQKPGKAPKLLIYAASSLQSGVPSRFSGSGSGTDFTLTISSLQPEDFATYYCQQANSFPLTFGGGTKVEIK
Consider B21, for which the binding result is listed as “no binding”.

B22: ADI-24830 (antibody, V domains shown)
VH: QVQLVQSGAEVKKPGSSVKVSCKASGGTFSSYAISWVRQAPGQGLEWMGGIIPIFGTANYAQKFQGRVTITADESTSTAYMELSSLRSEDTAVYYCARGGSMVRGLGFDPWGQGTLVTVSS
VL: not shown
notes: full-length IgG
B22: the binding result is reported as “no binding”.

B23: ADI-24801 (antibody, V domains shown)
VH: QVQLVQSGAEVKKPGASVKVSCKASGYTFTSYGISWVRQAPGQGLEWMGWISAYNGNTNYAQKLQGRVTMTTDTSTSTAYMELRSLRSDDTAVYYCARVTARTFGGIRKGYYYGMDVWGQGTTVTVSS
VL: not shown
notes: full-length IgG; also called Ab 368
B23: the binding result was “no binding”.

B24: ADI-24843 (antibody, V domains shown)
VH: EVQLVESGPGLVKPSQTLSLTCTVSGGSISSGDYYWSWIRQPPGKGLEWIGYIYYSGSTYYNPSLKSRVTISVDTSKNQFSLKLSSVTAADTAVYYCARESIVGAVDYWGQGTLVTVSS
VL: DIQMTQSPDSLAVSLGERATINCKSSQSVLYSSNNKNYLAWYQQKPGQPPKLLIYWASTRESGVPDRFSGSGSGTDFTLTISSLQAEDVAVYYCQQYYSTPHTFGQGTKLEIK
notes: full-length IgG; also called Ab 405
Turning to B24, the binding result was “no binding”.
